Assay in all cases: native gel or EMSA; blue native PAGE, 4%-16% Bis-Tris gel, 4C, 1-2 ug protein purified in buffer A (50 mM HEPES, 500 mM NaCl, pH 8.0, 1 mM TCEP, 10% glycerol); migration according to MW against NativeMark standards
In general terms: A gel shift assay detects complexes by their altered migration in electrophoresis.

Series [1] deals with CeSpartin (C. elegans spartin) (C. elegans).
Series [2] deals with CtSpartinL (spartin-like protein from Chaetomium thermophilum) (Chaetomium thermophilum).
Series [3] concerns the molecule itself.

The record followed here is doi:10.1101/2023.11.29.569220, “Spartin-mediated lipid transfer facilitates lipid droplet turnover” (bioRxiv, 2023).

On to “CeSpartin (C. elegans spartin) (natural protein)”, for which the stoichiometry N (commonly a count of units in the complex or per binding partner) in series [1] worked out at 3.
As to “CtSpartinL (spartin-like protein from Chaetomium thermophilum) (natural protein)”, the stoichiometry N in series [2] came out at 3.

B1: HsSpartin (human spartin, SPG20) (natural protein, UniProt Q8N0X7 1-666, looked up)
chain: MEQEPQNGEPAEIKIIREAYKKAFLFVNKGLNTDELGQKEEAKNYYKQGIGHLLRGISISSKESEHTGPGWESARQMQQKMKETLQNVRTRLEILEKGLATSLQNDLQEVPKLYPEFPPKDMCEKLPEPQSFSSAPQHAEVNGNTSTPSAGAVAAPASLSLPSQSCPAEAPPAYTPQAAEGHYTVSYGTDSGEFSSVGEEFYRNHSQPPPLETLGLDADELILIPNGVQIFFVNPAGEVSAPSYPGYLRIVRFLDNSLDTVLNRPPGFLQVCDWLYPLVPDRSPVLKCTAGAYMFPDTMLQAAGCFVGVVLSSELPEDDRELFEDLLRQMSDLRLQANWNRAEEENEFQIPGRTRPSSDQLKEASGTDVKQLDQGNKDVRHKGKRGKRAKDTSSEEVNLSHIVPCEPVPEEKPKELPEWSEKVAHNILSGASWVSWGLVKGAEITGKAIQKGASKLRERIQPEEKPVEVSPAVTKGLYIAKQATGGAAKVSQFLVDGVCTVANCVGKELAPHVKKHGSKLVPESLKKDKDGKSPLDGAMVVAASSVQGFSTVWQGLECAAKCIVNNVSAETVQTVRYKYGYNAGEATHHAVDSAVNVGVTAYNINNIGIKAMVKKTATQTGHTLLEDYQIVDNSQRENQEGAANVNVRGEKDEQTKEVKEAKKKDK
notes: Spartin (SPG20), human, Uniprot Q8N0X7, full-length; gene synthesized and cloned into pCMV10 with an N-terminal 3xFLAG tag; The Expi293 methods describe only elution with 3xFLAG peptide and no protease step; source: Expi293 cells, purified (anti-FLAG resin); not shown: 3xFLAG, N-terminal, cleaved
For B1, the “stoichiometry N” value in series [3] was roughly 3.
